Each block holds one binder with its values, some of them ahead of it.
Experiments:
human 4-1BB [1] = molecular target: T1, human 4-1BB (human, UniProt Q07011 24-255); assay: binding to 293T cells expressing human 4-1BB
T1 construct: whole, on cells; Also used here for the native receptor on human T cells in the co-stimulation assay; also called CD137; h4-1BB

human 4-1BB [2] = molecular target: T1, human 4-1BB; assay: flow cytometry, staining of 293T cells transfected with human 4-1BB, compared with untransfected 293T cells

T1 sequence (Q07011 24-255): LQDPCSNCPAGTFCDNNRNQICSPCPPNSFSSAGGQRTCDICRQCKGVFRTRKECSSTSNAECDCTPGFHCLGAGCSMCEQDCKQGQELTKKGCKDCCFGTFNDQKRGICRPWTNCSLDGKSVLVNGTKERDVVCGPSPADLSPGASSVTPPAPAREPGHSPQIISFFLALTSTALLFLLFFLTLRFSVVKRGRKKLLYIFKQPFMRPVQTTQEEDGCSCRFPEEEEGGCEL

B1: ZW106 (antibody, V domains shown)
VH: QVQLQQPESELVRPGGSVKLSCKASGYTFTSYWMDWVKQRHGQGLEWIGNIYPDSGGTNYAEKFKSKATLTVDTSSSTAYMHLSSLTSEDSAVYYCTREEALGGYYELTYWGQGTLVTVSA
VL: DIVLTQSPASLPVSLGQRATISCRASQSVSTSSYSYMHWYQQKPGQPPKLLIKYASNLESGVPARFSGSGSGTDFTLNIHPVEEEDTATYYCQHSWEIPYTFGGGTKLEIE
notes: Mouse monoclonal antibody against human 4-1BB; also called clone ZW106; 4-1BB mAb
- binding result (human 4-1BB [1]): binds

B3: ZW103 (antibody, V domains shown)
VH: QVQLQQSGAELVRPGVSVKISCKGSGYTFTDYAMHWVKQSHVKSLEWIGGISTYNGDASYNQKFKGKATMTVDKSSRTAYMELVRLTSEDSAIYYCAPSNYGYAMDYWGQGTSVTVSS
VL: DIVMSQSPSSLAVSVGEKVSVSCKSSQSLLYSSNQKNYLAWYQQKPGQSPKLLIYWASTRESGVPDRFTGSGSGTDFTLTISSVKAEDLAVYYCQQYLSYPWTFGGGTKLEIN
notes: Mouse monoclonal antibody against human 4-1BB from a hybridoma; also called clone ZW103; 4-1BB mAb
- binding result (human 4-1BB [2]): binds

Continued, values first:

- binding result (human 4-1BB [2]): binds
B2: ZW104 (antibody, V domains shown)
VH: QVQLQQSGAELARPGASVKMSCKASGYIFTTYAMHWVKQRPGQGLEWIGYINPTTVYTIYNQKFKDKATLTADKSSSTAYMQLSSLTSEDSAVYYCARLGGHWYFDVWGAGTTVTVSS
VL: not shown
notes: Mouse monoclonal antibody against human 4-1BB from a hybridoma; also called clone ZW104; 4-1BB mAb

- binding result (human 4-1BB [1]): binds
B4: ZW107 (antibody, V domains shown)
VH: QVQLQQSGAELVRPGTSVKISCKASGYAFTNYWLGWVKQRPGHGLEWIGDIYPGNGNNYYSEKFKDKATLTADKSSSTVYIRLSSLTSEDSAVYFCARHGSFRSAMDYWGQGTSVTVSS
VL: DIQMTQSPASPSASVGETVTITCRASENIYSYLAWYQQKQGKSPQLLVYNAKTLADGVPSRFSGSGSGTQFSLKINSLQPEDFGSYYCQHHYGTPPTFGGGTKLEIK
notes: Mouse monoclonal antibody against human 4-1BB; also called clone ZW107; 4-1BB mAb
